Laboratory results taken from US20210071221.

What was measured:
[1] = target: T1, Acceptor substrate 1 (SEQ ID NO: 4)
T1 chain: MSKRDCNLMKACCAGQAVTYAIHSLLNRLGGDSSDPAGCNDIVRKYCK

[2] = target: T2, Acceptor substrate 2 (SEQ ID NO: 5)
T2 chain: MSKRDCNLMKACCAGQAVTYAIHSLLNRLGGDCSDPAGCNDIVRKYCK

[3] = target: T3, Acceptor substrate 6 (SEQ ID NO: 9)
T3 chain: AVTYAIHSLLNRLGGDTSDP

B1: C-terminal 6X-His tagged recombinant nucleotide dependent glycosyltransferase protein (GT-CTH) (protein)
chain: MGYSENFIANDWFNVEVFNKNKYTLTNQENKDVTELWLQILKGLKFPNELKETVSYSKNLKELSLKTHAEVSVCIIAKNEQDSIRKCINSIYEFSDEIIFIDTGSIDSTKKIVKEIASEKVKIFDYTWQDDFSDARNYSIQKASKEWILIIDADEYVSSDELIKLRLLIDMLDRFKFKDSLRVSCAIYQLDNVITHGQSRLFRNNNKIKYYGLIHEELRNNKGLDPIFNVESEITFFHDGYKEILRKEKCERNIRLLAKMLEKEPDNVRWAYLYCRDSFSINSNIDFEKILLPFLIKNMDESISCENILLTNYTHLILFLITKKYIIDGKSSLASKCIEVLEKMLPNSSDVTFYKFLNKQHSLYEQQFEFLKEVIQFRKNNEYDQYSQIGCNLLHYDLLISGLLFDVKSYDYSYQYFLKLDLANYFSELEIPDEYKMLINKYRENESLEHHHHHH
[1]
  in vitro glycosylation of the acceptor peptide, LC-ESI-Q/TOF: observed average mass of di-glycosylated product as 5503.47 Da (Expected average mass 5503.00 Da)
[2]
  in vitro glycosylation of the acceptor peptide, LC-ESI-Q/TOF: observed monoisotopic mass of di-glycosylated product as 5515.53 Da (Expected monoisotopic mass 5515.41 Da)
[3]
  in vitro glycosylation of the acceptor peptide, MALDI-TOF: observed (M+H)^+ of di-glycosylated product as 2424.65 Da (Expected (M+H)^+ 2424.07 Da) and observed (M+H)^+ of mono-glycosylated product as 2262.57 Da
